In patent publication US20140275490A1 (Astellas, published 2014):

T1: human IL-23R (human, UniProt Q5VWK5 24-629)
T1 sequence: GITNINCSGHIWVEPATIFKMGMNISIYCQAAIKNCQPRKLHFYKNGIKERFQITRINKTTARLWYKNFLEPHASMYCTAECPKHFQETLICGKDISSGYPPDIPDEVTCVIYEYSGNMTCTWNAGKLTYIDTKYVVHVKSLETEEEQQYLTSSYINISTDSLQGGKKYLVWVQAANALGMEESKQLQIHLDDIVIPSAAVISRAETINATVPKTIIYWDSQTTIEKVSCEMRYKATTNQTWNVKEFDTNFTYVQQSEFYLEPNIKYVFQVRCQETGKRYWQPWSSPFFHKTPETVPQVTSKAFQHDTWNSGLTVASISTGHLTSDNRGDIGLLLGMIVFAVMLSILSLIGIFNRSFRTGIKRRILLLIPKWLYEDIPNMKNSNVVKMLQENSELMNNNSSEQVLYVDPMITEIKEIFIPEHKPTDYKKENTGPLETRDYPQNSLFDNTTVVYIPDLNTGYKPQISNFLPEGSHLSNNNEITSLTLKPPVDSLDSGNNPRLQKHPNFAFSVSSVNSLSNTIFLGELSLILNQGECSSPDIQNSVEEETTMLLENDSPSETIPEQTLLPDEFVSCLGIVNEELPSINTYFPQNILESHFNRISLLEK

T2: human IL-23R-mouse Fc fusion protein (human; mouse, UniProt Q5VWK5 24-353)
T2 construct: Expressed in FreeStyle 293 cells, purified; immobilized on the ELISA plate at 500 ng/mL; also called human IL-23R-Fc fusion protein; not shown: Fc region of mouse immunoglobulin (IgG2a) as encoded by the vector pFUSE-mIgG2A-Fc2 (InvivoGen); limits and any linker r
T2 sequence: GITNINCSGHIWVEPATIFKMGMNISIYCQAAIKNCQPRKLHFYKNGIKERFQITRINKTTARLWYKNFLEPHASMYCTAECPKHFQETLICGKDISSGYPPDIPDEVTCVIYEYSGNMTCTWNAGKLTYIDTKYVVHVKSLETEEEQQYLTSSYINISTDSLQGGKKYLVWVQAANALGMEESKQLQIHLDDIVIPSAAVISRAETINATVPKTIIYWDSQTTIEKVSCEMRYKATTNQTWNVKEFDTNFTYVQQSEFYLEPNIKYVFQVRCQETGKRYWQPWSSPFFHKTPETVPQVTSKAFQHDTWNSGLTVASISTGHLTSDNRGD


Columns and labels:
human IL-23R [1] = target: T1, human IL-23R; experiment: cell-based or functional assay
human IL-23R [2] = target: T1, human IL-23R; experiment: cell-based or functional assay; remark: listed apart in the source
[3] = target: T2, human IL-23R-mouse Fc fusion protein; experiment: antigen ELISA, human IL-23R-Fc immobilized, HRP anti-human IgG, chemiluminescence
Experimental: (§1) The present inventors used an antigen ELISA to measure the antigen-specific binding activities of the fully human antibodies constructed in Example 6. A human or monkey IL-23R-Fc fusion protein was immobilized onto a Maxisorp 384-well plate (Nunc, Inc.) at a concentration of 500 ng/mL. A blocking agent (Blocking One; Nacalai Tesque, Inc.) was added thereto and allowed to stand at room temperature for 1 hour, followed by washing twice with a wash buffer [TPBS: 0.05% Tween-20-containing phosphate buffered saline (PBS)], and each of the purified antibody samples was suitably serially diluted and added thereto. Incubation was performed at room temperature for 1 hour, followed by washing four times with TPBS, and HRP-labeled anti-human IgG antibody (DAKO) which was 2000-fold diluted with dilution buffer was added as secondary antibody. Incubation was performed at room temperature for 1 hour, followed by washing four times with a washing buffer. A BM-chemiluminescence ELISA substrate (POD) (Roche Diagnostics) that is a reagent for detecting chemiluminescence was added thereto and the amount of chemiluminescence was measured with an EnVision counter (Perkin Elmer). Each of the antibodies was tested in duplicate, and the EC 50 was analyzed by curve fitting.

[4] = target: T3, monkey IL-23R-mouse Fc fusion protein (monkey; mouse); experiment: antigen ELISA, monkey IL-23R-Fc immobilized, HRP anti-human IgG, chemiluminescence
T3 construct: extracellular domain; also called monkey IL-23R-Fc fusion protein
Experimental: as §1

[5] = target: T2, human IL-23R-mouse Fc fusion protein; experiment: antigen ELISA, human IL-23R-Fc immobilized, HRP anti-mouse Ig, chemiluminescence
Experimental: (§2) The present inventors used an antigen ELISA to measure the antigen-specific binding activity of the antibody. The human or monkey IL-23R-Fc fusion protein was immobilized onto a Maxisorp 384-well plate (Nunc, Inc.) at a concentration of 500 ng/mL. A blocking agent (Blocking One; Nacalai Tesque, Inc.) was added thereto and allowed to stand at room temperature for 1 hour, followed by washing twice with a wash buffer [TPBS: a phosphate buffered saline (PBS) containing 0.05% Tween-20], and the purified antibody samples were suitably serially diluted and added thereto. Incubation was performed at room temperature for 1 hour, followed by washing four times with TPBS, and HRP-rabbit anti-mouse Ig antibody (DAKO) which was 2000-fold diluted with a dilution buffer was added. Incubation was performed at room temperature for 1 hour, followed by washing four times with a wash buffer. A BM-chemiluminescence ELISA substrate (POD) (Roche Diagnostics), which is a reagent for detecting chemical luminescence, was added, and the amount of chemiluminescence was measured with an EnVision counter (Perkin Elmer). Each antibody was tested in duplicate and the EC50 was analyzed by curve fitting. In this test, a fusion antibody obtained by replacing the Fc region of the known humanized anti-human IL-23R antibody hum20D7 (patent document 1) with the mouse Fc region (hereinafter referred to as hum20D7-mFc) was used as a comparative antibody. Also, the reason why the hum20D7 was fused with the mouse Fc region to prepare a fusion protein was to use anti-mouse Ig antibody as secondary antibody, and the mouse Fc region could be recognized by the anti-mouse Ig antibody, thereby rendering it possible to measure activity.

[6] = target: T3, monkey IL-23R-mouse Fc fusion protein; experiment: antigen ELISA, monkey IL-23R-Fc immobilized, HRP anti-mouse Ig, chemiluminescence
Experimental: as §2

Binder	IC50, inhibition of human IL-23-inducible Kit-225 cell proliferation (human IL-23R [1]) [µg/mL]	IC50, IL-23-stimulated STAT3 phosphorylation in CD4 lymphocytes of human whole blood (human IL-23R [2]) [µg/mL]	EC50 [3] [µg/mL]	EC50 [4] [µg/mL]	EC50 [5] [µg/mL]	EC50 [6] [µg/mL]
fully human antibody 30-15 (antibody, human IgG1, kappa, V domains shown, Human Ig gamma1 / human kappa constant regions; also called 30-15 (fully human); fully human 30-15 antibody) VH: QVQLVQSGAEVKKPGASMKVSCKVSGYTLNELSIHWVRQAPGKGLEWMGGFDPEHGETVYAQNFQDRVTLTEDTSTDTSYMGLNNLRSDDTAVYYCAAESYGDYEFWGQGTLVTVSS VL: DIQMTQSPSSVSASVGDRVTITCRASQGINNWLAWYQQKPGKAPKVLIYTASSLQSGVPSRFSGSGSGTDFTLTISSLQPEDFATYYCQQANSHPWTFGQGTKVEIKR	0.0014	0.013	0.0118	0.0076	–	–
30-16 (chimeric) (antibody, V domains shown) VH: QVQVVQSGAEVKKPGASVKVSCKVSGYTLIELAIHWVRQVPGKGLEWMGGFDPEHGETIYAQKFQGRVTMTEDTSTDTAYMELNNLRSEDTAVYYCAILEAGDLDCWGQGTLVTVSS VL: DIQMTQSPSSVSASVGDRVTITCRASQGISNWLAWYQQKPGKAPKVLIYTASSLQSGVPSRFSGSGSGTDFTLTVSGLQPEDFGTYYCQQANSFPFTFGPGTKVDIKR	–	–	–	–	0.019	0.069
fully human antibody 32-28 (antibody, human IgG1, kappa, V domains shown, Human Ig gamma1 / human kappa constant regions; also called 32-28 (fully human); fully human 32-28 antibody) VH: QVHLVQSGTEVRKPGASVKVSCKVSGYTLNELAIHWVRQAPGKGLEWMGGFDPEHGEIIYAQRFQGRVTLPEDTSTDTAYLDLFNLRSEDTAVYFCATEAAPFDYWGQGTLVIVSS VL: DIQMTQSPSTLSASVGDRVTITCRASQSLSSWLAWYQQKPGKAPKLLIYKASSLESGVPSRFSGSGSGTDFTLTISSLQPDDFATYYCQQYDIYPRTFGQGTKVEIKR	0.0014	0.00016	0.0131	0.0171	–	–
fully human antibody 34-58 (antibody, human IgG1, kappa, V domains shown, Human Ig gamma1 / human kappa constant regions; also called 34-58 (fully human); fully human 34-58 antibody) VH: QVHLVQSGTEVRKPGASVKVSCKVSGYTLNELAIHWVRQAPGKGLEWMGGFDPEHGEIIYAQRFQGRITLPEDTSTDTAYMDLVNLRSEDTAVYFCTTEAAPFDYWGQGSLVIVSS VL: DIQMTQSPSTLSASVGDRVTITCRASQSLSNWLAWYQQKPGKAPKLLIYKASSLESGVPSRFSGSGSGTDFTLTISGLQPDDFATYYCQQYDIYPRTFGQGTKVEIKR	0.0037	0.00051	0.0146	0.0148	–	–
fully human antibody 25-3 (antibody, human IgG1, kappa, V domains shown, Human Ig gamma1 / human kappa constant regions; also called 25-3 (fully human); fully human 25-3 antibody) VH: QVQLQESGPGQVKPSQTLSLTCSVSGGSIDSGDHYWTWIRQHPGEVLEWIGYIYSSGHTYYSPSLKSRLTMSLDTSKNQFSLRLSSVTAADTAVYYCARVGDYEWFDTWGQGTLVTVSS VL: DIVMTQSPDSLAVSLGERATINCKSSQTILYPSNNMNYLGWYQQRAGQSPRLLIYWASTRESGVPDRFSGSGSGTDFTLTISSLQAEDVAVYYCQQYYSSLPTFGQGTKVEIKR	0.0035	0.0007	0.0195	0.0112	–	–

The next lines start with the values.

IC50, inhibition of human IL-23-inducible Kit-225 cell proliferation (human IL-23R [1]) [µg/mL]	IC50, IL-23-stimulated STAT3 phosphorylation in CD4 lymphocytes of human whole blood (human IL-23R [2]) [µg/mL]	EC50 [3] [µg/mL]	EC50 [4] [µg/mL]	EC50 [5] [µg/mL]	EC50 [6] [µg/mL]	Binder
0.0023	0.0045	0.0165	0.0108	–	–	fully human antibody 30-16 (antibody, human IgG1, kappa, V domains shown, Human Ig gamma1 / human kappa constant regions; also called 30-16 (fully human); fully human 30-16 antibody) VH: QVQVVQSGAEVKKPGASVKVSCKVSGYTLIELAIHWVRQVPGKGLEWMGGFDPEHGETIYAQKFQGRVTMTEDTSTDTAYMELNNLRSEDTAVYYCAILEAGDLDCWGQGTLVTVSS VL: DIQMTQSPSSVSASVGDRVTITCRASQGISNWLAWYQQKPGKAPKVLIYTASSLQSGVPSRFSGSGSGTDFTLTVSGLQPEDFGTYYCQQANSFPFTFGPGTKVDIKR
–	–	–	–	0.017	0.016	30-15 (chimeric) (antibody, V domains shown) VH: QVQLVQSGAEVKKPGASMKVSCKVSGYTLNELSIHWVRQAPGKGLEWMGGFDPEHGETVYAQNFQDRVTLTEDTSTDTSYMGLNNLRSDDTAVYYCAAESYGDYEFWGQGTLVTVSS VL: DIQMTQSPSSVSASVGDRVTITCRASQGINNWLAWYQQKPGKAPKVLIYTASSLQSGVPSRFSGSGSGTDFTLTISSLQPEDFATYYCQQANSHPWTFGQGTKVEIKR
0.0033	–	0.0136	0.0084	–	–	fully human antibody 30-18 (antibody, human IgG1, kappa, V domains shown, Human Ig gamma1 / human kappa constant regions; also called 30-18 (fully human); fully human 30-18 antibody) VH: QVQLVQSGAEVKKPGASVKVSCKVSGYTLNELSIHWVRQAPGKGLEWMGGFDPEHSETLYAQNFQDRLTLTEDTSTETACMELNSLRSDDTAVYYCAAESYGDYEFWGQGTLVTVSS VL: DIQMTQSPSSVSASVGDRVTITCRASQDISSWLAWYQQKPGKAPKVLIYTASSLQSGVPSRFSGSGSGTDFTLTISSLQPEDFATYYCQQANSHPWTFGQGTKVEIKR
0.0067	0.0082	0.0218	0.0331	–	–	fully human antibody 32-36 (antibody, human IgG1, kappa, V domains shown, Human Ig gamma1 / human kappa constant regions; also called 32-36 (fully human); fully human 32-36 antibody) VH: QVQMVQSGAEVKRPGASVKVSCKVSGYTLNELGIHWVRQAPGKGLEWMGGFDPEHGKIIYAQRFQGRLTMPEDTSTDTAYMELSSLTSEDTAVYYCATVAAPLDYWGQGTLVTVSS VL: not shown
–	–	–	–	0.018	0.024	32-28 (chimeric) (antibody, V domains shown) VH: QVHLVQSGTEVRKPGASVKVSCKVSGYTLNELAIHWVRQAPGKGLEWMGGFDPEHGEIIYAQRFQGRVTLPEDTSTDTAYLDLFNLRSEDTAVYFCATEAAPFDYWGQGTLVIVSS VL: DIQMTQSPSTLSASVGDRVTITCRASQSLSSWLAWYQQKPGKAPKLLIYKASSLESGVPSRFSGSGSGTDFTLTISSLQPDDFATYYCQQYDIYPRTFGQGTKVEIKR
–	–	–	–	0.021	0.028	25-3 (chimeric) (antibody, V domains shown) VH: QVQLQESGPGQVKPSQTLSLTCSVSGGSIDSGDHYWTWIRQHPGEVLEWIGYIYSSGHTYYSPSLKSRLTMSLDTSKNQFSLRLSSVTAADTAVYYCARVGDYEWFDTWGQGTLVTVSS VL: DIVMTQSPDSLAVSLGERATINCKSSQTILYPSNNMNYLGWYQQRAGQSPRLLIYWASTRESGVPDRFSGSGSGTDFTLTISSLQAEDVAVYYCQQYYSSLPTFGQGTKVEIKR
